In patent publication US20250122271A1, “ANTI-DKK1 ANTIBODY, PHARMACEUTICAL COMPOSITION THEREOF, AND USE THEREOF” (SHANGHAI JUNSHI BIOSCIENCES CO., LTD., priority 2022, published 2025):
Like-named read-outs stand apart in the source and are kept apart here.

How the values were obtained:
[1] = target: T1, human DKK1 antigen (Sino Biological, 10170-H08H) (human, UniProt O94907 32-266); experiment: ELISA binding; FIG. 4B
T1 chain: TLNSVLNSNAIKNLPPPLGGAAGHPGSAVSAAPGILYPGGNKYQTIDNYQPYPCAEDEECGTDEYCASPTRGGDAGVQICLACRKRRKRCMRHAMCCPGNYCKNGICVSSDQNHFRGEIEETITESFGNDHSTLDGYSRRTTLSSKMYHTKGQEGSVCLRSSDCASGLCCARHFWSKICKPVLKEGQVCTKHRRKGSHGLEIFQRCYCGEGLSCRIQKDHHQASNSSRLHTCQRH

[2] = target: T1, human DKK1 antigen (Sino Biological, …); experiment: ELISA blocking of DKK1-LRP6
[3] = target: T1, human DKK1 antigen (Sino Biological, …); experiment: ELISA blocking of DKK1-LRP6
[4] = target: T1, human DKK1 antigen (Sino Biological, …); experiment: ELISA binding; given as IC50; FIG. 4A

- EC50 [1]: 0.0154 µg/mL
- IC50 [2]: 0.324 µg/mL
- IC50 [3]: 1.24 µg/mL
- EC50 [4]: 0.0148 µg/mL
B1: DKN-01 (antibody, V domains shown)
VH: EVQLVESGGGLVQPGGSLRLSCAASGFTFSSYTMSWVRQAPGKGLEWVATISGGGFGTYYPDSVKGRFTISRDNAKNSLYLQMNSLRAEDTAVYYCARPGYNNYYFDIWGQGTTVTVSS
VL: EIVLTQSPATLSLSPGERATLSCHASDSISNSLHWYQQKPGQAPRLLIYYARQSIQGIPARFSGSGSGTDFTLTISSLEPEDFAVYYCQQSESWPLHFGGGTKVEIKR
